Laboratory results taken from PMC2933242.

Target: T1, ERRα (estrogen-related receptor alpha) (UniProt P11474)
T1 sequence: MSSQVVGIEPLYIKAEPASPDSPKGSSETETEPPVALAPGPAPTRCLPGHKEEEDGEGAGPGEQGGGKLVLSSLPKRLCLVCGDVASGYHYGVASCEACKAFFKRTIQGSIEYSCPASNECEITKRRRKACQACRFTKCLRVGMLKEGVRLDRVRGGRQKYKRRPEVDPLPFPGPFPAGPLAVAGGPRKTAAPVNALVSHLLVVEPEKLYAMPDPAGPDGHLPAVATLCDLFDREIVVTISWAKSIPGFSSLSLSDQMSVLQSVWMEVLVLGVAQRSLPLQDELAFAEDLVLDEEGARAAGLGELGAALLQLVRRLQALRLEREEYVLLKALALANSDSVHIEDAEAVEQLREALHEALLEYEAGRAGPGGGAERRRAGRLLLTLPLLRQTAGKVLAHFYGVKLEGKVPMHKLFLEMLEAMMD
Experiment: competition
Details: 10-, 50-, EMSA with 15,000 cpm probe per reaction, buffer, salt, pH and temperature not given (as in ref 28)

“GATCTAGCTCCTGCAGGTTCTCAAGGTTGTAGTCCACACCCTGCTGATC (double strand) [PPARA -54,642 A probe (with -54,645 T)]” was tested, and the binding signal (fold IC50 (A competitor / G competitor)) (vs 32P G probe, 100-fold excess of competitor) was 2.3.
“GATCTAGCTCCTGCAGGTTCTCAAGGTTGTAGCCCGCACCCTGCTGATC (double strand) [PPARA -54,642 G probe (with -54,645 C)]” showed a binding signal (fold IC50 (reference)) (unlabeled G vs 32P G probe, 100-fold excess) of 1.
